According to the nanobody polyreactivity screen of Harvey et al. (2022):

Assay: yeast display, Sf9 membrane polyspecificity reagent, FACS + sequencing; frameworks hold sequencing errors
Outline: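 Genes from sorted yeast were amplified by colony PCR, read by MiSeq 2 × 250 sequencing and filtered on CDR length. These cells carried a synthetic nanobody library in Saccharomyces cerevisiae BJ5465 and were sorted by FACS into low and high (top ~1%) gates on anti-HA and streptavidin fluorescence. Polyreactivity is labelled according to the gate of origin.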

Row | Sequence | polyreactivity (PSR sort gate)
1 | QVQLVESGGGLVQAGGSLRISSAASGPTFVPNAMGSYRQAPGKERELVATITSGGNTYYADSVKGRFTISRDNAKNTVYLQMNSLKPEDTAVYYCNRDWIYWGPRRNSGEYWGQGTQVTVSS | low polyreactivity
2 | QVQRVESGGCLVQAGGSLRLSCAASGYTFGSNAMGWYIQAPGKERELVAAITYGAGRTSYADSVKGRFTISRDNAKNTVYLQMNSLKPEDTAVYYCAAVWGYVIWVDSAVYREYDYWGQGTQVTVSS | high polyreactivity
3 | QVQLVESRGCLVQAGGSLRLSCAASGSIFVNNAMGWYRPAPGYERELCAAITSGTRTNYADSVKGRFTISRDNAKNTVYLQMNSLKPEDTAVYYCATESAQYSWYYPGHPGYGYWGQGSQVTVSS | low polyreactivity
4 | QVQLVESGGGLVQAGGSLRLSCAASGRIFRANAMGWYRQAPGKERELVAGISYRGGSTYYADSVKGRFTISRDNAKNTVYLQMNSLKPEDTAVYYCAVRSSPELRYHYEYWGQGTQVTVSS | low polyreactivity
5 | QVQLVESGGGLVQAGGSLRLSCAASGSTFYRNALGWYRQAPGKERELVARISSRGGRTSYADSVKGRFTISRDNAKNTVYFQMNSLKPEDTAVYYCAADYYVNRIQRYDYWGQGTQVTVSS | high polyreactivity
6 | QVQLVESGGGLVQAGGSLRLSCAASGSIFYGYAMGWYRQAPGKERELVAAITSGGRTYYADSVKGRFTISRDNAKNTVYLQMNSLKPEDTAVYYCNKLNYWSVRYEYWGQGTQVTVSS | high polyreactivity
7 | QVQLVESGGGLVQAGGSLRLSCAASGRIFTSNAMGWYRQAPGKEREFVAAITKRGGRTYYADSVKGRFTISRDNAKNTVYLQMNSLLPEDTAVYYCAAGATGTSYYGGDYWGQGTQVTVSS | high polyreactivity
8 | QVQLVESGGGLVQAGGSLRLSCAASGSILYTYAMGWYRQAPGKERELVASISSNAGSTYYADSVKGRFTISRDNAKNTVYLQMNSLKPEDTAVYYCNKVYGGGTYDYWGQGTQVTVSS | low polyreactivity
9 | QVQLVESGGGLVQAGGSLRLSCAASGYTCGPYAMGWYRQAPGKERELVAAITTRGGSTYYADSVKGRFTISRDNAKNTVYLQMNSLKPEDTAVYYCAAVVNSKSIQRVVRYYYWGQGTQVTVSS | high polyreactivity
10 | QVQLVESGGGLVQAGGSLRLSCAASGSIFYIYAMGWYRKAPGKERELVASIDSGDSTNYADSVKGRFTISRDNAKNTVYLQMNSLKPEDTAVYYCNADTYSEITYYLYIGMDYWGQGTQVTVSS | low polyreactivity
11 | QVQLVESGGGLFQAGGSLRLSCAASGFTFRTYAMGWYRQAPGKERELVATIRRAGSTNYADSVKGRFTISRDNAKNTVYLQMNRLKPEDTAVYYCNAGFSHRSDNGIDGYYWGPGTQVTVSS | high polyreactivity
12 | QVQLVESGGGLVQSGGSLRLSCAASGSTSTSYVMGWYRQAPGKERELVAVITLRSGVTYYADSVKARFTISRDNPKYTVYLQMNSLKAEDTAVYYCNAATVVYTRVWRGYWGQGTHVTVSS | low polyreactivity
13 | QVQLVESGGGLVQAGGSLRLSCAASGFTFPRYAMGWYRQAPGKVRQLVAAISYRGGRTYYADSVKWRFTISRDNAKNTVFLQMNSLKPEDTAVYYCAADKTPSARYDYWGQGTQVTVSS | high polyreactivity
14 | QVQLVESGGGLVQAGGSLRLSCAASGSIFYNTMGWYRQAPGKERELVAAITSGGSTYYADSVKGRFTISRDNAKNTVYLQMNSLKPEDTAVYYCAAESYYCGYQWLYFEYGYWGQGTQVTVSS | low polyreactivity
15 | QVQLVESGGGLVQAGGSLRLSCAASGLTFYSNAMGWYRQAPGKERELVAAITWRSVRTYYADSVKGRFTISRDNAKNTVYLQMNSLKPEDTAVYYCAAASASRHGEYDYWGQGTQVTVSS | low polyreactivity
16 | QVQLVESGGGLVQAGGSLRLSCAASGSIFWGNAMGWYRQAPGKERELVAAIRRGTSTYYADSVKGRFTISRDNAKNTVYVQMNSLKPEDTAVYYCAASPFRYVYHFDYWGQGTQVTVSS | high polyreactivity
17 | QVQLVESGGGLVQAGGSLRLSCAASGRIFFGYAMGWYRQAPGKERELVAAITRRGTITHYADSVKGRFTISRDNAKNTVYLQMNSLKPEDTAVYYCNTVYARYSTAPGYNYWGQGTQVTVSS | high polyreactivity
18 | QVQLVESGGGLVQSGGSLRLSCAASGLIFGRYAMGWYRQAPGKERELVAAISYSGARTYYADSVKGRFTISRDNEKNTVYLQMNSLKPEDTAVYYCAAGPAFRQSEWWKAYDYWGQGTQVTVSS | high polyreactivity
19 | PVQLVDSGGGLVQAGGSLRLSCAASGKIFFGYTMGWYRTAPGKERELVAAITYRGGRTYYADSEKGRFTISRDNAKHTVYLQMNSLKPEDTAVYYFAVGGSGYGRYGGGYARDYWGQGTQVTVSS | high polyreactivity
20 | QVQLGESGGGLVQAGGSLRLSCAASGSIIQQYAIGWYRQAPGKERELVAAISWGDGSTYYADSVKGRFTISRDNAKNTVYLQKNSLKPEDTAVYYCNAYASAPLWSLEDDYWGQGTQVTVSS | low polyreactivity
21 | QVQLVESGGGLVQAGGSLRLSCAASGSTFKKYAMGWYRQAPGKERELVAAITGSGGRTYYADSVKGRFTISRDTAKNTVYLQMNSLKPEDTAVYYCANLNNYGYDYWGQGTQVTVSS | high polyreactivity
